Reference: the nanobody polyreactivity screen of Harvey et al. (2022)

Test: yeast display, Sf9 membrane polyspecificity reagent, FACS + sequencing; frameworks hold sequencing errors
Outline: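 Nanobodies from a synthetic yeast display library (Saccharomyces cerevisiae BJ5465), induced 36–48 hours with galactose, were stained 1 hour at 4 °C with 10% biotinylated, detergent-solubilized Sf9 membrane reagent, enriched on streptavidin microbeads, then FACS-sorted. Anti-HA (expression) and streptavidin (reagent binding) fluorescence set low and high (top ~1%) gates. Polyreactivity labels come from the gate of origin. Genes were colony-PCR amplified, MiSeq 2 × 250 sequenced and filtered by CDR length.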

## QVQLVESGGGLVQAGGSLRLSGAASGRIFVRNSMGWYRQAPGKERELVAAISSNGGSTRYADSVKGRFTISRDNAKNTVYLQMNSQKPEDTAVYYCNAYYSHSPRYLKYDYWGQGTQVTVSS
  polyreactivity (PSR sort gate): high polyreactivity

## QVQLVESGGGLVQAGGSLRLSGAASGRILRRYTMGWSRQAPGKERELVAAISSGGNTYYADSVKGRFTISRDNATNTVYLQMNSLKPEDTAGYYCAARVRRYWEYDYWGQGTQVTVSS
  polyreactivity (PSR sort gate): low polyreactivity

## QVQLVESGGGLVQAGGSLRLSGAASGRTFGSNDMGWYRQAHGKERELVAAISGRTDSTYYADSVKGRFTISRDIAKNTVYLQMNSLKPEDTAVYYCAADSADVLYYYIRYNYWGQGTQVTVSS
  polyreactivity (PSR sort gate): low polyreactivity

## QVQLVESGGGLVQAGGSLRLSGAASGRTFVYYAMGWYRQAPGKEREFVAAISRSGGRTSYADSVKGRFTISRDNAKNTVYLQMNSLKPEDTAVYDCAKRPQFFWSHPYDYWGQGTLVTVSS
  polyreactivity (PSR sort gate): high polyreactivity

## QVQLVESGGGLVQAGGSLRLSGAASGSIFSHYAMGWYRQAPGKAWELVASISTADSTNYADSVKGRFTISRDNAKNTVYFQMYSLKPEDTAVYYCAAEYQSYAQYAWGYDYCGQGTQVTVSS
  polyreactivity (PSR sort gate): low polyreactivity

## QVQLVESGGGLVQAGGSLRLSGAASGSSFLRNAMGWSRQAPGKERELVATISTGSGRTYYADSVKGRFTISRDNAKNTVYLQMTSLKPEDTAVYYCAASRTLRKHRYEYWGQGTKVTVSS
  polyreactivity (PSR sort gate): high polyreactivity

## QVQLVESGGGLVQAGGSLRLSGAASGSTFRYYVMGWYRQAPGKERELVAGISYRGGTTYYADSVKGRFTISRDNAKNTVYLQMISLKPEDTAVYYCNAETAAAQASFDRLYVLLDYWGQGTQVTVSS
  polyreactivity (PSR sort gate): low polyreactivity

## QVQLVESGGGLVQAGGSLRLSGAASGSTFYPNAMGRYRQAPGKERELVAAISGRGGRTYYADSVKGRFTISRDFAKNTVYLQINSLKPEDTAVYYCNIVRASDHYDYWGQGTQVTVSS
  polyreactivity (PSR sort gate): high polyreactivity

## QVQLVESGGGLVQAGGSLRLSGAATGSIIHPYAMGWYRQAPGKERELLAAISKSGGNTYYADSVKGRITISRDNAKNTVYLQMNSLKPEDTAVYYCAALDYWGQGTQVTVSS
  polyreactivity (PSR sort gate): low polyreactivity

## QVQLVESGGGLVQAGGSLRLSGDASGYIFVRYAMGWYRQAPGQARELVAAINSSGGRTYYADSVKGRFTISRDNAKNTVYLQMNSLKPEDTAVYYCAAYAYYRSGYRALEGYWGQGTQVTVSS
  polyreactivity (PSR sort gate): high polyreactivity

## QVQLVESGGGLVQAGGSLRLSRAASGFTITYNAKGWSRPAPGKESELVAAITGDGGSTYYADSVKGRFTISRDNAKNTVYLQMNSLKPEDTAVYYCAAYVVWGGTDGRYDYWGQGTQVTVSS
  polyreactivity (PSR sort gate): low polyreactivity

## QVQLVESGGGLVQAGGSLRLSRAASGGSLRLYAMRWYRQAHGKERELVSAINDRSGSTYYADSVKGRFTISRDNAKNTVYLKLNRLKPEDTAVYYCYAYGTPPGSDGQYDYWGQGTQVTVSS
  polyreactivity (PSR sort gate): high polyreactivity

## QVQLVESGGGLVQAGGSLRLSRAASGITFGFKAMGWYRQAPGKERELVAAITWSVGRTYYADSVKGRFTISRDNAKNTVYLQMNSLKPEDTAVYYCAKDFEAGDDYFAYDYWGQGTQVTVSS
  polyreactivity (PSR sort gate): low polyreactivity

## QVQLVESGGGLVQAGGSLRLSRAASGRTFYFNAMGWYRQAPGKERELVAGISGDGSTNYADSVKGRFTISRDNAKNTVYLQMNSLKPEDTAVYYCAKTLGSQNYDFDYWGQGTQVTVSS
  polyreactivity (PSR sort gate): low polyreactivity

## QVQLVESGGGLVQAGGSLRLSRAGCGRIFFVYAMRWYRQAPGKERELVAALSVSDVSTSYADSVKGRFTISRDNAKNTVFLQMNSLKPEDTAVYYCLAAFRFYASSRIAGEDYWGQGTQVTVSS
  polyreactivity (PSR sort gate): low polyreactivity

## QVQLVESGGGLVQAGGSLRLSRASSGVISYRNAMGWYRKAPGKERQLVASITSSGGRTYYADSVKGRFTISRDYATNSVFLQMNSLKPEDTAVYYCADDNWYKKLKRPSAYDYWGQGTQVTVSS
  polyreactivity (PSR sort gate): high polyreactivity

## QVQLVESGGGLVQAGGSLRLSSAASGFIFDGNAMGWYRQAPGKERELVAAIRSGGRTNYADSVKGRFTISRDNAKNTVYLQMNSLKPEDTAVYYCAARSIYPYYYRRDNRYYYWGQGTQVTVSS
  polyreactivity (PSR sort gate): high polyreactivity

## QVQLVESGGGLVQAGGSLRLSSAASGFIFPVYTMGWYRQAPGTERELLAAITQIGGSTHYADSVKGRFTISRDNAKNTVYLQMNSLKPVDTAVYYFNAVPSYGTEYDYWGQGTQVTVSS
  polyreactivity (PSR sort gate): low polyreactivity

## QVQLVESGGGLVQAGGSLRLSSAASGFIFRTYAMGRYRQAHGKESQLVAAISGTTGSKYYADSVKGRFTISRDNAKNTVYLQMNSLKPEDTAVYYCAADFYWYIRYDYWGQGTQVTVSS
  polyreactivity (PSR sort gate): low polyreactivity

## QVQLVESGGGLVQAGGSLRLSSAASGFIIVFYAMGWYRQAPGKERELVAAITWSGGGTYYADSVKGRCTISRDNAKNTVYLQMNSLKPEDTAVYYCNAEEPQYYYVLDKLYDFWGQGTQVTVSS
  polyreactivity (PSR sort gate): low polyreactivity

## QVQLVESGGGLVQAGGSLRLSSAASGFILDTNAMGWYRQAPGKERELVSAITKRGIRTYYADSVKGRFTISRDNAQNTVYLQMNSLKPEDTAVYYCNAQRPIATVWHRYDSWGQGTQVTVSS
  polyreactivity (PSR sort gate): high polyreactivity

## QVQLVESGGGLVQAGGSLRLSSAASGFTFSQYAMGWYRQAPGKERELVAAISVSGGTTYYADSVKGRFTISRDNAKNTVYLQMNSLKPEDTAVYYCAARTPYSRSPYVNTSGYYYWGQGTQVTVSS
  polyreactivity (PSR sort gate): high polyreactivity

## QVQLVESGGGLVQAGGSLRLSSAASGFTFWSKAMGWYRQAPGKERELVAAISRGGSTYYADSVKGRFTITRDNAKNTVYLQMNSLKPEDTAVYYCAAVRLSRVYYWGQGTQVTVSS
  polyreactivity (PSR sort gate): high polyreactivity

## QVQLVESGGGLVQAGGSLRLSSAASGFTFYRNPMGWYRQAPGKERELVAAITRSGTSTYYADSVKGRFTISRDNAKNSVYLQKNSLKPEDTAVYYCNTVGYRGRSNSRFYYWGQGTQVTVSS
  polyreactivity (PSR sort gate): high polyreactivity

## QVQLVESGGGLVQAGGSLRLSSAASGGTFTKNAMGWYRQAPGKERELVAAISWRGTSTYYADSVKGRFSISRDNAKNTVYLQMNSLKPDDTAVYFCLPWVGYGRYKPGYKYDYWGQGTQVTVSS
  polyreactivity (PSR sort gate): high polyreactivity

## QVQLVESGGGLVQAGGSLRLSSAASGIIFGVYGMGWYRPAPGKERELVASIRYSSVRTYYADSVKGRFTISRDNAKNTVYLQMNSLKPEDTAVYYCAKYYVWPSYGYWGQGTQVTVSS
  polyreactivity (PSR sort gate): high polyreactivity

## QVQLVESGGGLVQAGGSLRLSSAASGIIFKSYAMGWYRPAPGKERELVSAISGGGDTYYAYSVKGRFTISRDNAKNTVNLQMNSLKPEDTAVYYCNTDGSQGTIIAIFVKYDYWGQGTQVTVSS
  polyreactivity (PSR sort gate): low polyreactivity

## QVQLVESGGGLVQAGGSLRLSSAASGIIFRVYTMGWYLQAPGKERELVAKISLGGARTYYADSVKGRFTISRDNAKNTVYLQMNSLKPEDTAVYYCNARSRWTAKFDYWGQGTQVTVSS
  polyreactivity (PSR sort gate): high polyreactivity

## QVQLVESGGGLVQAGGSLRLSSAASGITFDDYAMGWNRQAPGKERELVAAITWSGDSTYYADSVKGRFTISRDNAKNTVYLQMNSLKPEDTAVYYCAAVSYYYSGYIRGYWGQGTQVTVSS
  polyreactivity (PSR sort gate): high polyreactivity

## QVQLVESGGGLVQAGGSLRLSSAASGITFRTNTMGWYRQAPGKERELVASISSGTRTNYADSVKGRFTISRDNAKNTVYLQMNSLKPEDTAVDYCAAGPPRNRYRNARFDYWGQGTQVTVSS
  polyreactivity (PSR sort gate): high polyreactivity

## QVQLVESGGGLVQAGGSLRLSSAASGITFYVYAKGRYRQAPGKERELVAAISGSGGNTYYADSVKGRFTISRDNAKNTVYLQMNSLKPEDTPVYYFNADDHSPYYGDLDYWGQGTQVSVSS
  polyreactivity (PSR sort gate): low polyreactivity
